Results reported in the supplement of paper PMC11246515.
± gives the standard deviation of the averaged measurements.

Assay: total protein half-life in vivo (active degradation + dilution); higher = more stable protein
[1] = E. coli NCM3722 delta-clpP delta-lon delta-hslV, growth: N-lim chemostat, doubling time 6 h
[2] = E. coli NCM3722 delta-clpP, growth: N-lim chemostat, doubling time 6 h
[3] = E. coli NCM3722 delta-hslV, growth: N-lim chemostat, doubling time 6 h
[4] = E. coli NCM3722 delta-lon, growth: N-lim chemostat, doubling time 6 h
[5] = E. coli NCM3722 delta-smpB, growth: N-lim chemostat, doubling time 6 h
[6] = wild type E. coli NCM3722, growth: C-lim chemostat, doubling time 3 h
[7] = wild type E. coli NCM3722, growth: C-lim chemostat, doubling time 6 h
[8] = wild type E. coli NCM3722, growth: C-lim chemostat, doubling time 12 h
[9] = wild type E. coli NCM3722, growth: N-lim chemostat, doubling time 6 h
[10] = wild type E. coli NCM3722, growth: N-lim chemostat, doubling time 12 h
[11] = wild type E. coli NCM3722, growth: P-lim chemostat, doubling time 6 h
[12] = wild type E. coli NCM3722, growth: P-lim chemostat, doubling time 12 h

| Sequence | total protein half-life in vivo [1] | total protein half-life in vivo [2] | total protein half-life in vivo [3] | total protein half-life in vivo [4] | total protein half-life in vivo [5] | total protein half-life in vivo [6] | total protein half-life in vivo [7] | total protein half-life in vivo [8] | total protein half-life in vivo [9] | total protein half-life in vivo [10] | total protein half-life in vivo [11] | total protein half-life in vivo [12] |
| --- | --- | --- | --- | --- | --- | --- | --- | --- | --- | --- | --- | --- |
| MSTTIEKIQRQIAENPILLYMKGSPKLPSCGFSAQAVQALAACGERFAYVDILQNPDIRAELPKYANWPTFPQLWVDGELVGGCDIVIEMYQRGELQQLIKETAAKYKSEEPDAE [P0AC69] | 6.29 h | 5.76 ± 1.2 h | 3.71 ± 0.071 h | 4.31 ± 0.19 h | 3.43 ± 0.19 h | 2.37 ± 0.19 h | 5.03 ± 0.74 h | 6.84 ± 0.26 h | 3.25 ± 0.33 h | 5.45 ± 0.99 h | 4.67 ± 1.3 h | 11.4 ± 3.8 h |
| MNSFNEGVVSPLLSFWRRSLMLAGALLLTACSHNSSLPPFTASGFAEDQGAVRIWRKDSGDNVHLLAVFSPWRSGDTTTREYRWQGDNLTLININVYSKPPVNIRARFDDRGDLSFMQRESDGEKQQLSNDQIDLYRYRADQIRQISDALRQGRVVLRQGRWHAMEQTVTTCEGQTIKPDLDSQAIAHIERRQSRSSVDVSVAWLEAPEGSQLLLVANSDFCRWQPNEKTF | 6.47 ± 1.2 h | 7.12 ± 0.33 h | 6.4 h | 6.98 h | 6.11 ± 0.48 h | 3.17 ± 0.14 h |  | 11.2 h | 6.3 ± 0.074 h | 13.2 ± 1.6 h | 6.31 ± 0.4 h | 14.1 ± 1.4 h |
| MFILWYSASSTFGKDSDIVMGVRAQQKEKTRRSLVEAAFSQLSAERSFASLSLREVAREAGIAPTSFYRHFRDVDELGLTMVDESGLMLRQLMRQARQRIAKGGSVIRTSVSTFMEFIGNNPNAFRLLLRERSGTSAAFRAAVAREIQHFIAELADYLELENHMPRAFTEAQAEAMVTIVFSAGAEALDVGVEQRRQLEERLVLQLRMISKGAYYWYRREQEKTAIIPGNVKDE [P0ACU5] | 6.31 ± 0.35 h | 5.81 ± 0.25 h | 6.25 ± 0.1 h |  | 5.957 ± 0.021 h | 2.73 ± 0.18 h | 5.97 ± 0.75 h | 11.2 ± 2.1 h | 5.71 ± 0.12 h | 10.4 ± 1.6 h | 5.31 ± 0.57 h | 10.88 ± 0.052 h |
| MEQRRLASTEWVDIVNEENEVIAQASREQMRAQCLRHRATYIVVHDGMGKILVQRRTETKDFLPGMLDATAGGVVQADEQLLESARREAEEELGIAGVPFAEHGQFYFEDKNCRVWGALFSCVSHGPFALQEDEVSEVCWLTPEEITARCDEFTPDSLKALALWMKRNAKNEAVETETAE | 5.19 ± 0.16 h | 4.78 ± 0.093 h | 2.3 ± 0.074 h | 2.72 ± 0.38 h | 2.49 ± 0.11 h | 1.93 ± 0.17 h | 4.53 ± 1.2 h | 7.26 ± 0.99 h | 2.85 h | 3.09 ± 0.045 h | 3.4 ± 0.06 h | 7.2 ± 0.65 h |
| MDKIEVRGARTHNLKNINLVIPRDKLIVVTGLSGSGKSSLAFDTLYAEGQRRYVESLSAYARQFLSLMEKPDVDHIEGLSPAISIEQKSTSHNPRSTVGTITEIHDYLRLLFARVGEPRCPDHDVPLAAQTVSQMVDNVLSQPEGKRLMLLAPIIKERKGEHTKTLENLASQGYIRARIDGEVCDLSDPPKLELQKKHTIEVVVDRFKVRDDLTQRLAESFETALELSGGTAVVADMDDPKAEELLFSANFACPICGYSMRELEPRLFSFNNPAGACPTCDGLGVQQYFDPDRVIQNPELSLAGGAIRGWDRRNFYYFQMLKSLADHYKFDVEAPWGSLSANVHKVVLYGSGKENIEFKYMNDRGDTSIRRHPFEGVLHNMERRYKETESSAVREELAKFISNRPCASCEGTRLRREARHVYVENTPLPAISDMSIGHAMEFFNNLKLAGQRAKIAEKILKEIGDRLKFLVNVGLNYLTLSRSAETLSGGEAQRIRLASQIGAGLVGVMYVLDEPSIGLHQRDNERLLGTLIHLRDLGNTVIVVEHDEDAIRAADHVIDIGPGAGVHGGEVVAEGPLEAIMAVPESLTGQYMSGKRKIEVPKKRVPANPEKVLKLTGARGNNLKDVTLTLPVGLFTCITGVSGSGKSTLINDTLFPIAQRQLNGATIAEPAPYRDIQGLEHFDKVIDIDQSPIGRTPRSNPATYTGVFTPVRELFAGVPESRARGYTPGRFSFNVRGGRCEACQGDGVIKVEMHFLPDIYVPCDQCKGKRYNRETLEIKYKGKTIHEVLDMTIEEAREFFDAVPALARKLQTLMDVGLTYIRLGQSATTLSGGEAQRVKLARELSKRGTGQTLYILDEPTTGLHFADIQQLLDVLHKLRDQGNTIVVIEHNLDVIKTADWIVDLGPEGGSGGGEILVSGTPETVAECEASHTARFLKPML [P0A698] | 6.85 ± 0.08 h | 6.52 ± 0.27 h | 6.32 ± 0.14 h | 6.4 ± 0.084 h | 5.66 ± 0.51 h | 3.21 ± 0.095 h | 6.19 ± 0.7 h | 12.1 ± 0.6 h | 6.24 ± 0.3 h | 12.7 ± 0.13 h | 6.273 ± 0.06 h | 13.6 ± 0.84 h |
| MRYSKLTMLIPCALLLSACTTVTPAYKDNGTRSGPCVEGGPDNVAQQFYDYRILHRSNDITALRPYLSDKLATLLSDASRDNNHRELLTNDPFSSRTTLPDSAHVASASTIPNRDARNIPLRVDLKQGDQGWQDEVLMIQEGQCWVIDDVRYLGGSVHATAGTLRQSIENR |  | 5.61 ± 1.2 h | 6.1159 ± 0.0003 h |  | 6.06 ± 0.54 h | 2.89 ± 0.099 h | 6.3 ± 0.064 h | 12.9 ± 1 h | 6.03 ± 0.21 h | 12.6 ± 1.1 h | 6.22 ± 0.44 h | 13.7 ± 0.35 h |
| MALPILLDCDPGHDDAIAIVLALASPELDVKAITSSAGNQTPEKTLRNVLRMLTLLNRTDIPVAGGAVKPLMRELIIADNVHGESGLDGPALPEPTFAPQNCTAVELMAKTLRESAEPVTIVSTGPQTNVALLLNSHPELHSKIARIVIMGGAMGLGNWTPAAEFNIYVDPEAAEIVFQSGIPVVMAGLDVTHKAQIHVEDTERFRAIGNPVSTIVAELLDFFLEYHKDEKWGFVGAPLHDPCTIAWLLKPELFTSVERWVGVETQGKYTQGMTVVDYYYLTGNKPNATVMVDVDRQGFVDLLADRLKFYA | 4.982 ± 0.041 h | 4.24 ± 0.14 h | 4.66 ± 1 h | 4.291 ± 0.039 h | 4.236 ± 0.027 h | 3.02 ± 0.045 h | 5.85 ± 0.58 h | 10.5 ± 0.72 h | 4.76 ± 0.19 h | 7.25 ± 0.29 h | 5.5168 ± 0.0052 h | 11.3 ± 0.33 h |
| MYTLNWQPPYDWSWMLGFLAARAVSSVETVADSYYARSLAVGEYRGVVTAIPDIARHTLHINLSAGLEPVAAECLAKMSRLFDLQCNPQIVNGALGRLGAARPGLRLPGCVDAFEQGVRAILGQLVSVAMAAKLTARVAQLYGERLDDFPEYICFPTPQRLAAADPQALKALGMPLKRAEALIHLANAALEGTLPMTIPGDVEQAMKTLQTFPGIGRWTANYFALRGWQAKDVFLPDDYLIKQRFPGMTPAQIRRYAERWKPWRSYALLHIWYTEGWQPDEA | 6.48 h |  |  |  |  | 2.32 ± 0.17 h | 2.85 h | 4.47 h | 1.34 h | 1.62 h | 3.45 h |  |
